Among the data in paper PMC3365488 (Biochemistry, 2012) are Kd values, retold here.

A word on the Kd: it is the concentration at which binding is half-saturated. High values mean a looser complex, low ones a tighter complex.

For the assay, the target named is T1, CheY complexed with the unlinked CheA P2 domain (E. coli, UniProt P0AE67 1-129; P07363 156-229).
T1 sequence (looked up) 1: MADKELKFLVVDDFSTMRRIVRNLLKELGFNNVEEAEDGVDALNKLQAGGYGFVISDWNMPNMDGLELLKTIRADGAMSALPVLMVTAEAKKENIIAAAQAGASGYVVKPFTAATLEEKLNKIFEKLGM
T1 sequence (looked up) 2: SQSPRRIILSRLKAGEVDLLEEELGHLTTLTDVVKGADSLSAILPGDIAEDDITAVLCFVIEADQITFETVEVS
Kind of assay: NMR titration.

B1: CheA P1 domain (residues 1-134) (domain or fragment, E. coli, UniProt P07363 1-134, looked up)
chain: MSMDISDFYQTFFDEADELLADMEQHLLVLQPEAPDAEQLNAIFRAAHSIKGGAGTFGFSVLQETTHLMENLLDEARRGEMQLNTDIINLFLETKDIMQEQLDAYKQSQEPDAASFDYICQALRQLALEAKGET
The molecule B1 yielded a Kd of roughly 4.5 mM.
